According to the supplement of paper PMC9170038:

Test system: MS2 coat protein
Experiment: apparent KD of MS2 coat protein; designed switch direction (-1 OFF switch, 1 ON switch): -1; higher = weaker reporter binding
In short: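 Designed RNA switches with common flanks were transcribed on Illumina chips by stalled E. coli RNA polymerase and titrated with SNAP-549-labelled MS2 coat protein, from 0.7 or 1.5 nM doubling to 3 µM, in Tris-HCl pH 7.5 buffer with KCl, MgCl2, BSA, DTT, tRNA and Tween-20. Steps lasted 0.8–1.5 h (lowest) to 10–20 min (highest). Titrations ran without input, with 200 uM small-molecule ligand, or with an oligonucleotide input. Normalised cluster fluorescence was curve-fitted, and apparent KD is the per-design median over clusters.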

[1] = input ligand: microRNA oligo, concentration not stated
[2] = Eterna round: R95, input ligand: FMN 200 uM
[3] = Eterna round: R95, input ligand: microRNA oligo, concentration not stated
[4] = Eterna round: R95, input ligand: none

ACCUCACAUGAGGAUCACCCAUGUCAGGAUAUCUGAUGUAGUCCCGUUCCGGACGCUGAGAGAAGGGACGUUGA [EX1 #39] (Eterna round: R97, puzzle: Exclusion 1)
apparent KD of MS2 coat protein (input ligand: FMN 200 uM): 0.0389 µM | apparent KD of MS2 coat protein (input ligand: none): 0.0516 µM

CAUUGUUAUCGAGGAUAUCGUAUUGAGAUUCUACGAGAAGGCGGACUAAACAUGAGGAUCACCCAUGUGAGACGGAUGCUUGGG [Ex NG1 #32] (Eterna round: R96, puzzle: Exclusion NG 1)
apparent KD of MS2 coat protein (input ligand: FMN 200 uM): 0.0367 µM | apparent KD of MS2 coat protein [1]: 0.0223 µM | apparent KD of MS2 coat protein (input ligand: none): 0.0257 µM

GUGGUCCGAGGAUAUAUUAUGUGAUACAUGAGGAUCACCCAUGUUAUAUAAUGGAUGUUAGUAGAAGGCGGACUAC [Mat - Exclusion 5 - JL mod - D83] (puzzle: Exclusion 5)
apparent KD of MS2 coat protein [2]: 0.107 µM | apparent KD of MS2 coat protein [3]: 0.056 µM | apparent KD of MS2 coat protein [4]: 0.0491 µM

GCAGGAUAAGUGAGGAUAUACCUCUGGAUACAGAGGUAGAAGGUACAUGAGGAUCACCCAUGUCUAUAACCUGC [Fiskers BMX 4 - 80] (puzzle: Brourd's mod of Exclusion 4)
apparent KD of MS2 coat protein [3]: 0.0129 µM

AAUCCUGAAGUUAGGAUAUGAAGUAUCACUACACUUUAGAAGGAACUUGAGGAUCACCCAAGUAGCCGUGAGGC [jl-bmx4.4.65 ViennaUCT mod] (Eterna round: R97, puzzle: Brourd's mod of Exclusion 4)
apparent KD of MS2 coat protein (input ligand: FMN 200 uM): 0.068 µM | apparent KD of MS2 coat protein (input ligand: none): 0.0224 µM

GCAAGAGCAGGAUAUCUAAUAUAUCACAUGAGGAUCACCCAUGUCCAGCGAAAGCUGGAGGGAGAAGGGCUCUUGC [Mat - Exclusion 5 - Eli mod - D101] (puzzle: Exclusion 5)
apparent KD of MS2 coat protein [2]: 0.0589 µM | apparent KD of MS2 coat protein [3]: 0.123 µM | apparent KD of MS2 coat protein [4]: 0.15 µM

ACAUGUCAUCGAGGAUAUUGGACACAUGAGGAUCACCCAUGUACUCGGUUGCUCUAGCAUGAGUUCGAGAAGGCGAUGUACAUU [Ex NG2 #80] (Eterna round: R96, puzzle: Exclusion NG 2)
apparent KD of MS2 coat protein (input ligand: FMN 200 uM): 0.159 µM | apparent KD of MS2 coat protein [1]: 0.229 µM | apparent KD of MS2 coat protein (input ligand: none): 0.387 µM

AAUUAUUAUUGAGGAUAUCGUAUUGAAACAAUAUGAGAAGGCGGGAUAAACAUGAGGAUCACCCAUGUGAGCCUGAUGCUUGUG [Ex NG1 #40] (Eterna round: R96, puzzle: Exclusion NG 1)
apparent KD of MS2 coat protein [1]: 0.0153 µM

AGGGAGUGAGGAUAUACGAAAUAAAAAGAAGGAAAAAAAGAGUAGAAGGCACAUGAGGAUCACCCAUGUGAGAA [milkweed 12] (Eterna round: R96, puzzle: Exclusion 4)
apparent KD of MS2 coat protein [1]: 0.0169 µM

UAAUAUCUGCAGGAUAUCGGUGUAGCACGCGUAUGAGAAGGGCAGACAUGAGGAUCACCCAUGUAUUAUAUCCG [Eternabot (L2) Solution 39] (Eterna round: R97, puzzle: Exclusion 6)
apparent KD of MS2 coat protein (input ligand: FMN 200 uM): 0.0348 µM | apparent KD of MS2 coat protein (input ligand: none): 0.0245 µM

ACGCUCCGUGUAGGAUAUCGCCGUACCACUCGGCGAGAAGGACAUGAGGAUCACCCAUGUAUGUUAUUAUCACGUGUGGCGCGC [Design 51] (Eterna round: R96, puzzle: Exclusion NG 1)
apparent KD of MS2 coat protein (input ligand: FMN 200 uM): 0.0255 µM | apparent KD of MS2 coat protein [1]: 0.0152 µM | apparent KD of MS2 coat protein (input ligand: none): 0.0199 µM

AGUACUAACACGAGAGUGUUAGUACUAUAAGCUUGUGUUACAUGAGGAUCACCCAUGUCCUCAUAAGCUCGUCUUAG [Mat - Sensor v3 - Turn-off var 2 - D67] (puzzle: Sensor v3, turn-off variant 2)
apparent KD of MS2 coat protein [2]: 0.0393 µM | apparent KD of MS2 coat protein [3]: 0.099 µM | apparent KD of MS2 coat protein [4]: 0.0446 µM

GAAUAGCGAGGAUAUACAUGAGGAUCACCCAUGUGAUCCUUAGGCUGUUCAAGCCUAUGUAGAAGGCGCAAAUU [jl-ex3.4.56 ViennaUCT mod] (Eterna round: R97, puzzle: Exclusion 3)
apparent KD of MS2 coat protein (input ligand: FMN 200 uM): 0.0862 µM | apparent KD of MS2 coat protein (input ligand: none): 0.335 µM

AAAGGGUCAGGAUAUCCUGUGAAGAAGAAGUUGUUGUCGCGGGAGAAGGGACAUGAGGAUCACCCAUGUAGAGC [A Simple Submission] (Eterna round: R97, puzzle: Exclusion 4)
apparent KD of MS2 coat protein (input ligand: FMN 200 uM): 0.0529 µM | apparent KD of MS2 coat protein (input ligand: none): 0.0536 µM

GUUACACAUGAGGAUCACCCAUGUGAGGAUAUGGAUUCGUUAGAAGUAGAAGAUGGAUCCAGAAGGCGCGUGAG [JR_Ex1_Sub079] (Eterna round: R97, puzzle: Exclusion 1)
apparent KD of MS2 coat protein (input ligand: FMN 200 uM): 0.16 µM | apparent KD of MS2 coat protein (input ligand: none): 0.0627 µM

UACAUGAGGAUCACCCAUGUUUUGUCGUGUAUGGUACCCAUCUAGGAUAUCGUGUUAUUGGACCACGAGAAGGAGAGUAUCAAU [Excl-NG3-LRO01] (Eterna round: R96, puzzle: Exclusion NG 3)
apparent KD of MS2 coat protein (input ligand: FMN 200 uM): 0.0192 µM | apparent KD of MS2 coat protein [1]: 0.0181 µM | apparent KD of MS2 coat protein (input ligand: none): 0.0241 µM

GCAGAAUGAGUUAGGAUAUGAUGAUUUUUCGGAAAUCAGAAGGAACUUGAGGAUCACCCAAGUAAAGAUAGGGU [JR_BMEx4_Sub064] (Eterna round: R97, puzzle: Brourd's mod of Exclusion 4)
apparent KD of MS2 coat protein (input ligand: FMN 200 uM): 0.358 µM | apparent KD of MS2 coat protein (input ligand: none): 0.236 µM

AUAAUACAUGUAGGAUAUGCGUGGCGAAGCUAUGCAGAAGGACAUGAGGAUCACCCAUGUUCUAGCGUCUGCGUACAGAUGCUA [JL eng1 1.35 mod 1] (Eterna round: R96, puzzle: Exclusion NG 1)
apparent KD of MS2 coat protein (input ligand: FMN 200 uM): 0.0373 µM | apparent KD of MS2 coat protein [1]: 0.014 µM | apparent KD of MS2 coat protein (input ligand: none): 0.0181 µM

AGUACUAACACGGGUGUGUUAGUACAAUAAGCUUGUGAAACAUGAGGAUCACCCAUGUCCUCAUAAGCUCGUCUUAU [salish99_TOv2_r3_075] (Eterna round: R96, puzzle: Sensor v3, turn-off variant 2)
apparent KD of MS2 coat protein (input ligand: FMN 200 uM): 0.0153 µM | apparent KD of MS2 coat protein [1]: 0.503 µM | apparent KD of MS2 coat protein (input ligand: none): 0.0166 µM

UGAUCUAGCGGAGGAUAUACAUGAGGAUCACCCAUGUAGUAGUCUGUACCGUAGUGCAGACUUGUGUAGAAGGCCGCUAGAUCU [JL ENG2 3.61] (Eterna round: R96, puzzle: Exclusion NG 2)
apparent KD of MS2 coat protein (input ligand: FMN 200 uM): 0.0158 µM | apparent KD of MS2 coat protein [1]: 0.0108 µM | apparent KD of MS2 coat protein (input ligand: none): 0.0141 µM

CUGCUCCGUGUAGGAUAUCCCGGCAACCAACCGGGAGAAGGACAUGAGGAUCACCCAUGUAUGUUAUUAUCACGUGAAGCGUCC [Design 28] (Eterna round: R96, puzzle: Exclusion NG 1)
apparent KD of MS2 coat protein (input ligand: FMN 200 uM): 0.029 µM | apparent KD of MS2 coat protein [1]: 0.0125 µM | apparent KD of MS2 coat protein (input ligand: none): 0.0199 µM

CUUCGACAUGAGGAUCACCCAUGUCAGGAUAUUGUUUAUCUGGUUUUUUACAGAUAUACAAGAAGGGAUGUGUU [LRO-Excl1-02] (puzzle: Exclusion 1)
apparent KD of MS2 coat protein [3]: 0.0259 µM

CGCGAGGGAGGAUAUGCACUCAGUGAUCACGCCCAAAUUCGACAUGAGGAUCACCCAUGUAGAAGGCCCGGCUA [EX2 B.15] (Eterna round: R97, puzzle: Exclusion 2)
apparent KD of MS2 coat protein (input ligand: FMN 200 uM): 0.0211 µM | apparent KD of MS2 coat protein (input ligand: none): 0.019 µM

AAGUAUAGAGGAUAUAGUGAGUACUACAUGAGGAUCACCCAUGUUCUUCGUUACGUAUUUCUAGAAGGCUGAUAAA [EX-5 Malc#23] (puzzle: Exclusion 5)
apparent KD of MS2 coat protein [3]: 0.106 µM

UAAAUUAUUGUAAGGAUAUCAGUCCCGAAAGGGACUGAGAAGGUACAUGAGGAUCACCCAUGUGAAAUAAGAAU [Mod of Zala 15 - Jieux - Brourd's Mod of Exclusion 4] (Eterna round: R97, puzzle: Brourd's mod of Exclusion 4)
apparent KD of MS2 coat protein (input ligand: FMN 200 uM): 0.0531 µM | apparent KD of MS2 coat protein (input ligand: none): 0.0221 µM

GGUGCUGGCGCGUCGGUGUUGGUGCAAUAAGCUUGUGAAACAUGAGGAUCACCCAUGUCCUCAUAAGCUCGUCUUAU [salish99_TOv2_r2_086] (puzzle: Sensor v3, turn-off variant 2)
apparent KD of MS2 coat protein [2]: 0.0177 µM | apparent KD of MS2 coat protein [3]: 0.529 µM | apparent KD of MS2 coat protein [4]: 0.0159 µM

GCAGGCGUCUUGGCUCGUCUUAUUUUGAGAGGAUUGAUAACAUGAGGAUCACCCAUGUUUGUGGGAGAGUUGCAGUG [JR_SV3TOV2_Sub016] (puzzle: Sensor v3, turn-off variant 2)
apparent KD of MS2 coat protein [2]: 0.108 µM | apparent KD of MS2 coat protein [3]: 0.283 µM | apparent KD of MS2 coat protein [4]: 0.133 µM

UGUAAGCUAGGAUAUGCUUUGGGAAAGCAUUCCUUCGAUAAACUUGAGGAUCACCCAAGUAGAAGGAGCUUACA [salish99_ex2_r4_005] (Eterna round: R97, puzzle: Exclusion 2)
apparent KD of MS2 coat protein (input ligand: FMN 200 uM): 0.0208 µM | apparent KD of MS2 coat protein (input ligand: none): 0.0124 µM

CUGGUCCGAGGAUAUAUUAUGUGAUACAUGAGGAUCACCCAUGUAAUAUGAUGGAAGUAAAUAGAAGGCGGACUAG [Mat - Exclusion 5 - JL mod - D46] (puzzle: Exclusion 5)
apparent KD of MS2 coat protein [2]: 0.0425 µM | apparent KD of MS2 coat protein [3]: 0.0558 µM | apparent KD of MS2 coat protein [4]: 0.0581 µM

UCAUGUUUAGAGGAUAUGAUUACUCUAGAGUGAUCAGAAGGCUAGACAUGAGGAUCACCCAUGUCAGAACAUGA [Exclusion 6 - B - 16:b] (puzzle: Exclusion 6)
apparent KD of MS2 coat protein [2]: 0.0954 µM | apparent KD of MS2 coat protein [3]: 0.0476 µM | apparent KD of MS2 coat protein [4]: 0.0465 µM

CUUUUGUGAGGAUAUUAGUAGUAAAUAAAUAAAAUUACUACUGAGAAGGCACAUGAGGAUCACCCAUGUUCCUC [salish99_ex4_r3_041] (Eterna round: R96, puzzle: Exclusion 4)
apparent KD of MS2 coat protein (input ligand: FMN 200 uM): 0.424 µM | apparent KD of MS2 coat protein [1]: 0.0328 µM | apparent KD of MS2 coat protein (input ligand: none): 0.0354 µM

UAAGCUACUGUCAGGAUAUCGUAAUUGGUGAACGACGAGAAGGGACAUGAGGAUCACCCAUGUCGAUGACUGGG [Eternabot (L2) Solution 97] (Eterna round: R97, puzzle: Brourd's mod of Exclusion 4)
apparent KD of MS2 coat protein (input ligand: FMN 200 uM): 0.386 µM | apparent KD of MS2 coat protein (input ligand: none): 0.2 µM

GGAUCACAUGUUAGGAUAUGCUGGUCCUUGGAUCAGCAGAAGGGACAUGAGGAUCACCCAUGUCAUGAAGAUCC [Eli bmx4 4.81] (Eterna round: R97, puzzle: Brourd's mod of Exclusion 4)
apparent KD of MS2 coat protein (input ligand: FMN 200 uM): 0.0528 µM | apparent KD of MS2 coat protein (input ligand: none): 0.0241 µM
